Laboratory results reported in article PMC4790104 (Analytical chemistry, 2016).
Blank lines part the entries; values can stand above or below the binder they belong to.

Key:
[1] = target: Nup84-HRV-SpA (S. cerevisiae (endogenous in budding …, UniProt P52891 1-726)); experiment: native MS
[2] = target: T1, Psf2-SpA (S. cerevisiae (endogenous in budding …, UniProt P40359 1-213)); experiment: native MS
T1 sequence (looked up): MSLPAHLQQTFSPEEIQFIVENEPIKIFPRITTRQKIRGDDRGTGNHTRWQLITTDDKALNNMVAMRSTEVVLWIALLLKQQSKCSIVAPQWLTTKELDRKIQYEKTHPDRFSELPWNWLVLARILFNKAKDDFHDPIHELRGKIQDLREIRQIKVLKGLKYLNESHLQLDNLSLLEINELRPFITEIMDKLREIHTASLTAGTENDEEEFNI

Chain of Nup84-HRV-SpA (S. cerevisiae (P52891 whole entry): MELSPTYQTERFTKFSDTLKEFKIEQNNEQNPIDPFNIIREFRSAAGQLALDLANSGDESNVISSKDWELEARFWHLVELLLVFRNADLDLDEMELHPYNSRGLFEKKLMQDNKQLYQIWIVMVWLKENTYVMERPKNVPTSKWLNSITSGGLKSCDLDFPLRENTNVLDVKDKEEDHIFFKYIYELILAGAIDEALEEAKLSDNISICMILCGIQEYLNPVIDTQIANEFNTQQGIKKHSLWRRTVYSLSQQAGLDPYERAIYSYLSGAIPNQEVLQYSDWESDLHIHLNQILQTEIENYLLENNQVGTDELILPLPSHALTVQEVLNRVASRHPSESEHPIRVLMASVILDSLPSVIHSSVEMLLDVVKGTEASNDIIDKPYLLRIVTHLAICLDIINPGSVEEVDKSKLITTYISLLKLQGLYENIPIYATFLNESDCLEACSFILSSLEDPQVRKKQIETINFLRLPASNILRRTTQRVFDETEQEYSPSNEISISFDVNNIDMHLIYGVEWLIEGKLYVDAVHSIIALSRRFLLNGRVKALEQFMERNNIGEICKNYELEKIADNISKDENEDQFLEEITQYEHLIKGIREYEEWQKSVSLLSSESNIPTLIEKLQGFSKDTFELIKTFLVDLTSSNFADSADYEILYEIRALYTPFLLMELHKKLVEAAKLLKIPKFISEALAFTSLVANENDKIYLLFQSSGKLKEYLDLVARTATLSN

- stoichiometry N [1]: 1
B1: Sec13 (natural protein, UniProt Q04491 1-297, looked up)
chain: MVVIANAHNELIHDAVLDYYGKRLATCSSDKTIKIFEVEGETHKLIDTLTGHEGPVWRVDWAHPKFGTILASCSYDGKVLIWKEENGRWSQIAVHAVHSASVNSVQWAPHEYGPLLLVASSDGKVSVVEFKENGTTSPIIIDAHAIGVNSASWAPATIEEDGEHNGTKESRKFVTGGADNLVKIWKYNSDAQTYVLESTLEGHSDWVRDVAWSPTVLLRSYLASVSQDRTCIIWTQDNEQGPWKKTLLKEEKFPDVLWRASWSLSGNVLALSGGDNKVTLWKENLEGKWEPAGEVHQ

- stoichiometry N [2]: 1
B4: Psf3 (natural protein, UniProt Q12146 1-194, looked up)
chain: MGYYDIDDVLADGTEFPCKFQYDIPGLGYLENNPGRPITKNTKLSLPLWLARILAIVGGDEALVDEEPVPFVELLPPDMFSTKVMNAIKTDPVALDLHSINSHFFSLAIKWIMLFSEKELANVVSELLLQRAQELNHHASSLSIDLNADSTGKNSANTNIATSTFLLKLEEMEKEIYKKSHESYKDTKRWMFKK

- stoichiometry N [2]: 1
B6: Sld5 (natural protein, UniProt Q03406 1-294, looked up)
chain: MDINIDDILAELDKETTAVDSTKITQGSSSTTHRDANTIVGSSLDLNDKTQIYVSPQQDFSDLMKSWKNERCSPELLPYPHQLMKRLLNRISMQSQLIENISMGFLDMQNASNANPPMPNESKLPLLCMETELERLKFVIRSYIRCRLSKIDKFSLYLRQLNEDENSLISLTDLLSKDEIKYHDTHSLIWLKLVNDSILKYMPEELQAINDTEGSVNMIDEPDWNKFVFIHVNGPPDGKWNEDPLLQENEFGKPCYTVTIPDLKEEVELTIGSIYVMRYEVIRDLLRDDKVALI

- stoichiometry N [1]: 1
B7: Seh1 (natural protein, UniProt P53011 1-349, looked up)
chain: MQPFDSGHDDLVHDVVYDFYGRHVATCSSDQHIKVFKLDKDTSNWELSDSWRAHDSSIVAIDWASPEYGRIIASASYDKTVKLWEEDPDQEECSGRRWNKLCTLNDSKGSLYSVKFAPAHLGLKLACLGNDGILRLYDALEPSDLRSWTLTSEMKVLSIPPANHLQSDFCLSWCPSRFSPEKLAVSALEQAIIYQRGKDGKLHVAAKLPGHKSLIRSISWAPSIGRWYQLIATGCKDGRIRIFKITEKLSPLASEESLTNSNMFDNSADVDMDAQGRSDSNTEEKAELQSNLQVELLSEHDDHNGEVWSVSWNLTGTILSSAGDDGKVRLWKATYSNEFKCMSVITAQQ

Second part, the binder before the results:

B2: Nup145C (natural protein, UniProt P49687 606-1317, looked up)
chain: SIWGLVNEEDAEIDEDDLSKQEDGGEQPLRKVRTLAQSKPSDKEVILKTDGTFGTLSGKDDSIVEEKAYEPDLSDADFEGIEASPKLDVSKDWVEQLILAGSSLRSVFATSKEFDGPCQNEIDLLFSECNDEIDNAKLIMKERRFTASYTFAKFSTGSMLLTKDIVGKSGVSIKRLPTELQRKFLFDDVYLDKEIEKVTIEARKSNPYPQISESSLLFKDALDYMEKTSSDYNLWKLSSILFDPVSYPYKTDNDQVKMALLKKERHCRLTSWIVSQIGPEIEEKIRNSSNEIEQIFLYLLLNDVVRASKLAIESKNGHLSVLISYLGSNDPRIRDLAELQLQKWSTGGCSIDKNISKIYKLLSGSPFEGLFSLKELESEFSWLCLLNLTLCYGQIDEYSLESLVQSHLDKFSLPYDDPIGVIFQLYAANENTEKLYKEVRQRTNALDVQFCWYLIQTLRFNGTRVFSKETSDEATFAFAAQLEFAQLHGHSLFVSCFLNDDKAAEDTIKRLVMREITLLRASTNDHILNRLKIPSQLIFNAQALKDRYEGNYLSEVQNLLLGSSYDLAEMAIVTSLGPRLLLSNNPVQNNELKTLREILNEFPDSERDKWSVSINVFEVYLKLVLDNVETQETIDSLISGMKIFYDQYKHCREVAACCNVMSQEIVSKILEKNNPSIGDSKAKLLELPLGQPEKAYLRGEFAQDLMKCTYKI
- stoichiometry N [1]: 1

B3: Nup85 (natural protein, UniProt P46673 1-744, looked up)
chain: MTIDDSNRLLMDVDQFDFLDDGTAQLSNNKTDEEEQLYKRDPVSGAILVPMTVNDQPIEKNGDKMPLKFKLGPLSYQNMAFITAKDKYKLYPVRIPRLDTSKEFSAYVSGLFEIYRDLGDDRVFNVPTIGVVNSNFAKEHNATVNLAMEAILNELEVFIGRVKDQDGRVNRFYELEESLTVLNCLRTMYFILDGQDVEENRSEFIESLLNWINRSDGEPDEEYIEQVFSVKDSTAGKKVFETQYFWKLLNQLVLRGLLSQAIGCIERSDLLPYLSDTCAVSFDAVSDSIELLKQYPKDSSSTFREWKNLVLKLSQAFGSSATDISGELRDYIEDFLLVIGGNQRKILQYSRTWYESFCGFLLYYIPSLELSAEYLQMSLEANVVDITNDWEQPCVDIISGKIHSILPVMESLDSCTAAFTAMICEAKGLIENIFEGEKNSDDYSNEDNEMLEDLFSYRNGMASYMLNSFAFELCSLGDKELWPVAIGLIALSATGTRSAKKMVIAELLPHYPFVTNDDIEWMLSICVEWRLPEIAKEIYTTLGNQMLSAHNIIESIANFSRAGKYELVKSYSWLLFEASCMEGQKLDDPVLNAIVSKNSPAEDDVIIPQDILDCVVTNSMRQTLAPYAVLSQFYELRDREDWGQALRLLLLLIEFPYLPKHYLVLLVAKFLYPIFLLDDKKLMDEDSVATVIEVIETKWDDADEKSSNLYETIIEADKSLPSSMATLLKNLRKKLNFKLCQAFM
- stoichiometry N [1]: 1

B5: Psf1 (natural protein, UniProt Q12488 1-208, looked up)
chain: MYGDLGNKLVLEAKRTKQLYARSNQDVNLPMYHEDIIRNILKEVSNLRKNTEYLKEQQQLGMLDDKVAKCQYFVTLLCMERNKRCLLAYQRLRTDILDSMAWNNNGLDLMSSITFSQQDTNNLSHQEQEYLKEYCDLITDLKSGDLVDIDLSGSLVPPSDVFIDVRVLKDAGEIQTEYGVFNLIKDSQFFVRQSDVERLIQQGYLQKI
- stoichiometry N [2]: 1

B8: Nup120 (natural protein, UniProt P35729 1-1037, looked up)
chain: MACLSRIDANLLQYYEKPEPNNTVDLYVSNNSNNNGLKEGDKSISTPVPQPYGSEYSNCLLLSNSEYICYHFSSRSTLLTFYPLSDAYHGKTINIHLPNASMNQRYTLTIQEVEQQLLVNVILKDGSFLTLQLPLSFLFSSANTLNGEWFHLQNPYDFTVRVPHFLFYVSPQFSVVFLEDGGLLGLKKVDGVHYEPLLFNDNSYLKSLTRFFSRSSKSDYDSVISCKLFHERYLIVLTQNCHLKIWDLTSFTLIQDYDMVSQSDSDPSHFRKVEAVGEYLSLYNNTLVTLLPLENGLFQMGTLLVDSSGILTYTFQNNIPTNLSASAIWSIVDLVLTRPLELNVEASYLNLIVLWKSGTASKLQILNVNDESFKNYEWIESVNKSLVDLQSEHDLDIVTKTGDVERGFCNLKSRYGTQIFERAQQILSENKIIMAHNEDEEYLANLETILRDVKTAFNEASSITLYGDEIILVNCFQPYNHSLYKLNTTVENWFYNMHSETDGSELFKYLRTLNGFASTLSNDVLRSISKKFLDIITGELPDSMTTVEKFTDIFKNCLENQFEITNLKILFDELNSFDIPVVLNDLINNQMKPGIFWKKDFISAIKFDGFTSIISLESLHQLLSIHYRITLQVLLTFVLFDLDTEIFGQHISTLLDLHYKQFLLLNLYRQDKCLLAEVLLKDSSEFSFGVKFFNYGQLIAYIDSLNSNVYNASITENSFFMTFFRSYIIENTSHKNIRFFLENVECPFYLRHNEVQEFMFAMTLFSCGNFDQSYEIFQLHDYPEAINDKLPTFLEDLKSENYHGDSIWKDLLCTFTVPYRHSAFYYQLSLLFDRNNSQEFALKCISKSAEYSLKEIQIEELQDFKEKQHIHYLNLLIHFRMFEEVLDVLRLGHECLSDTVRTNFLQLLLQEDIYSRDFFSTLLRLCNAHSDNGELYLRTVDIKIVDSILSQNLRSGDWECFKKLYCFRMLNKSERAAAEVLYQYILMQADLDVIRKRKCYLMVINVLSSFDSAYDQWILNGSKVVTLTDLRDELRGL
- stoichiometry N [1]: 1
